# Data published in the nanobody polyreactivity screen of Harvey et al. (2022).
# Test: yeast display, Sf9 membrane polyspecificity reagent, FACS + sequencing; frameworks hold sequencing errors
# Outline: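 Galactose induction of a Saccharomyces cerevisiae BJ5465 synthetic nanobody display library ran 36–48 hours. The cells were then stained for 1 hour at 4 °C with 10% biotinylated, detergent-solubilized Sf9 membrane reagent, pulled down on streptavidin microbeads and FACS-sorted into low and high (top ~1%) gates on expression and reagent-binding fluorescence. Labels for polyreactivity follow the gate of origin.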
row,Sequence,polyreactivity (PSR sort gate)
1,QVQLVESGGGLVQAGGSLRLSCAASGSTFWHYAMGWYRQAPGKERELVAAISSGGGRTYYADSVKGRFTISRDNAKNTVYLQMNSLQPEDTAVYYCAARYYFYDYWGQGTQVTLSS,high polyreactivity
2,QVQLVESGGGLVQAGGSLRLSCAASGFTIPTYAMVWYRQAPGKERELVAAITRGGSTYYADSVKGRFTISRDNAKYTVYLQMNSLKPEDTAVYYCAADDPWYEEDYWGQGTQVTVSS,low polyreactivity
3,QVQLVESLVGLDQAGGSLRLSCSASGFTIPRYAMGWSRQAHGKESELVAAITSGGSTYYADSVKGRFTISRDNAKNNVYLQMNSLKTEVTAVYFCAADGLCGSRFYSWGLGTQVTVSS,high polyreactivity
4,QVQLVESGGGLVQAGGSLRLSCAASGRTFRSYAMGWYRQAPGKERELVAAISRGGRTNYADSVKGRFTISRDNAKNTVYLQMNSLKPEDTAVYYCAAAQFRSYWAFDYWGQGTQVTVSS,high polyreactivity
5,QVQLVESGGGLVQAGGSLRLSCAASGSIFKYNAMGWYRKAPGKERELVAAISWSGASTSYADSVKGRFTISRDNAKNTVYLQMNSLKPEDTAVYYCNAYYWYYSTRKYYYWGQGTKVTVSS,high polyreactivity
6,QVQLVESGGGLVQAGGSLRLSCAASGSTFQVYTMGWYRQAPGKEREFVASISWSGSSTYYADSVKGRFTISRDNAKNTVYLQMNSLKPEDTAVYYCAAPDESYSVWRLDGLDYWGQGTQVTVSS,high polyreactivity
7,QVQLVESGGGLVQAGGSLRLSCAASGSTFQVYAKGWYRQAPGKERELVAAIDSGVSTYYADSVKGLFTFSRDNAKNTVYLQMNSLKPEDTAVYYWYGYDYWGQGTQVTVSS,low polyreactivity
8,QVQLVESGGGLVQAGASLRLSCAASGRTFGKYAMGWYRQAPGKERELVAAITTRVVITYYADSVKGRFTISRDTAKITVYLQMNSLKPEDSADYYCAAVSIYWGQGTQVTVSS,low polyreactivity
9,QVQLVESGGCLVQAGGSLRLCCAASGSTFDSNAMGSYRQAPGIERELVAAISSDGSTTYADSVKGRFTISRDNAMNTVYLQMNSLKPEDTAVYYCEYYYWGQGTQVSVSS,low polyreactivity
10,QVQLVESGGGLVQAGGSLRLSCAASGGIFWFNAMGWYRQAPGKEREFVAAITWRGGSTYYADSVKGRFTISRDNAKNTVYLQMNSLKPEDTAVYYCAATYWWHRSSGWDRVEYWGQGTQVTVSS,high polyreactivity
11,QVQIVESGGGLVQAGGSLRLSCAASGSIFDSNAMGWYRQAPGKERELVASITSDGDTYYADSVKGRFTISRDNAKNTVYLQMNSVKPEDTAVYYGAAYVPYSGLDYWGQGTQVTVSS,low polyreactivity
12,QVQLVESGGGLVQAGGSLRLSCAASGRIFVYNVMGWYSQAPGKERELVAAISWGTGSTYADSVKGRFTISRANAKNSVYLQMNSLKPEDTAVYYCAADSFIPPYDHWGQGTQVTVSS,low polyreactivity
13,QVQLVQSGGGLVQAGGSLRLSCAASGNIISIYVMGWYRQAPGKERELVAAITSGGSTNYADSVKGRFTISRDNAKNTVYFQMNSLKPEDTAVYYCAAERNADDESYYWGQGSQVTVSS,low polyreactivity
14,QVQLVESGGGLVQAGGSLRLSCAASGNTIFPSTMGWYRQAPGKEREFVAAMTWSGVSTYYADSVKGRFTISRDNAKNTVYLQMNSLKPEDTAVYYCAARGPVYVSYPRQYGYWGQGTQVTVSS,high polyreactivity
15,QVQLVESGGGLVQAGGSLRLSCSASGFTFDYYAMGWYRQAPGKERELVAAITWNTVSTYYADSVKGRFTISRDNAKNTVYLQMNSLKPEDTAVYYCAADTQWLYRYDYWGQGTQVTVSS,low polyreactivity
16,QVQLVESGGGLVQAGGSLRLSCAASGSIFTSYAMGWYIPAPGKERELVASISGSGGSTYYADSVKGRFTISRDYSMNTVYLQMNRLKPEVTEVYVCANRCYNGWLRRYYYWGQGTNVTVSS,high polyreactivity

row,Sequence,polyreactivity (PSR sort gate)
1,QDQLVESGGGLVQAGRSLRLSCAASGRIFYYNAMGWYRQAPGKERELVAAISYTDDSTYADSVKGRFTISRDNAKNTVYLQLNSLKPEDTAVYYCAADAVAYIYGYDYDYWGQGTQVTVSS,low polyreactivity
2,QVQLVESGGGLVQAGGSLRLICAASGFTFSKYGMVWYRQAPGKERELVAAISGSGGNTYYADSVKGRFTISRDNAKNTVYLLINSLKPEDTAVYYCNATWELLSYYYLFWGYDYWGQGTQVTVSS,low polyreactivity
3,QVQLVESGGGLVQAGGSLRLSCAASGRTFALYAMGWYRQATGKERELVAAITWSGGSTYYADSVKGRFTISRDNAKNTVYLQMNSLKPEDTAVYYCAAQWPKSKYGYWGQGTQVTVSS,high polyreactivity
4,QVQLVESGGGLVQAGGSLRLSCAASGSTFTAYAMGWYRHAPGKERELVAGITGNGGSTRYADSVKGRFTISRDNAKNTVYVQMNSLKPEDTAFYYCAARWTRQRYRTSYYSWGQGTQVTVSS,high polyreactivity
5,QVQLVESGGGLVQAGGSLRLSCAASGRTFYSYSMGWYRQAPGKERELVAAINRSGGRTYYADSVKGRFTISRDNAKNTVYLQMNSLKPEDTAVYYCNALEYYRYDYWGQGTQVTVSS,high polyreactivity
6,QVQLVESGGCLFQAGGSLRLICAASGSISGLYAIGWYRQAPGKERELVARIRWRGDSTYYADSVKGRFTISRDNAKNTVYLQMNSLKPEDTAVYYCAASAYSGKVNKYNYWGQGTQVTVSS,high polyreactivity
7,QVQLVESGGGLVQAGGSLRLICAASGITFYDYAMGWYRQAPGKERELVAVITRRGGSTYYADSVKGRFTISRDNAKNTVYLQMNSLKPEDTAVYYCAADWRGWSFVRGDDYWGQGTQVTVSS,high polyreactivity
8,QVQLVESGGGLVQAGGSLRLSCAASGSTFFIYAMGWYRQAPGKERELVAVIRNIDVRTYYADSVKGRFTISRDNAKNTVYLQMNSLKPEDTAVYYCAADELLDESVDMYYWGQGTQVTVSS,low polyreactivity
9,QDQLVESGGGLVQAGGSLRLSCAASGRIFYTNAMGWYRQAPGQERDLVAVISWGGDTTYYADSVKGRFTISRDNAKNTVYLQMNSLKPEDTAVYYCNGDWGPTYEIYDSWGQGTQVTVSS,low polyreactivity
10,QVQLVESGGGLVQAGGSLRISCAASGRIFQHYAMGWYRQAPGKERELVAAISWRGGSTYYADSVKGRFTISRDNAKNTVFLLMNSLKPEDTAVYYCAAGYRGRIPGFDYWGQGTQVTVSS,high polyreactivity
11,QVQLVESGGGLVQAGGSLRLSSAASGSIFRFYTMGWYRQAPGKERELVAAISASGGNTYYADSVKGRFTISRDNAKNTVYLQMNSLKPEDTAVYYCARVKFTKYDYWGQGTQVTVSS,high polyreactivity
12,QVQLVESGGGLVQAGGSLRLSCAASGSTFYPNAMGWYRQAPGKERELVAAIDRGGSTSYADSVKGRFTISRDNAKNTVYLQMNSLKPEDTAVYYCAVARGGRRKYEYWGQGTQVTVSS,low polyreactivity
13,QVQLVESGGGLVQAGGSLRLSCAAYGYIFDHYAMGWYRQAPGKERELVAAINWSGGRTYYADSVKGRFTISRDNAKNTVYLQMNSLKPEDTAVYYCAAGGVSENDYWGQGTQVTVSS,high polyreactivity
14,QVQLVESGGGLVQAGGNLRLSCAASGFIFTRYAMGWYRQAPGKERELVAAISTSGDRTYYADSVKGRFTISRDNAKNTVYLQMNSLKPEDTAVYYCAVEASRAGAWYEYWGQGTQVTVSS,high polyreactivity
15,QVQLVESGAGLVQAGGSLRLSCAASGLIFGTDAMGLYRQAPGKESELVAAITSGGRTYYADSVKGRFTISRDNAKNTVYLQLISLKPEDTAVYYCAAEGWWNDTPYDYWGQVTQVTVSS,low polyreactivity
16,QVQLVESGGGLVQAGGSLRLSCAASGITFTPYAMGWYRQAPGKERELVAAISWRGGSTYYADSVKGRFTISRDNAKNTVYLQMNSLKPEDTAVYYCAKDGRGYGRYSRYYTGDYWGQGTQVTVST,low polyreactivity
